The text below walks through data of the nanobody polyreactivity screen of Harvey et al. (2022).

The nature of this data set: yeast display, Sf9 membrane polyspecificity reagent, FACS + sequencing; frameworks hold sequencing errors. A digest of the protocol: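 After 36–48 hours of galactose induction, yeast (Saccharomyces cerevisiae BJ5465) displaying a synthetic nanobody library were stained at 4 °C for 1 hour with 10% biotinylated, detergent-solubilized Sf9 membrane reagent. Streptavidin microbeads enriched the stained cells before FACS sorting into low and high (top ~1%) gates on anti-HA and streptavidin fluorescence. Each clone's polyreactivity label reflects its gate of origin.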
As to “QVQLVESGGGLVQAGGSLRLSCAASGRILWGNVMGWYRKAPGKERELVATITHGGSTNYADSVKGRFTISRDNAKNTVYLQMNSLKPEDTAVYYCARATRIQFYRRPYNYWGQGTQVTVSS”, the “polyreactivity (PSR sort gate)” value is “high polyreactivity”.

Regarding “QVQLVESGGGLVQAGGSLRLSCAASGRILYGNAMGWYRKAPGKERELVAAITRRGGSTYYADSVKGRFTISRDNAKNTVYLQMNSLKPEDTAVYYCNKVVGYRDTDFDYWGQGTQVTVSS”, the “polyreactivity (PSR sort gate)” value is listed as “high polyreactivity”.

Regarding “QVQLVESGGGLVQAGGSLRLSCAASGRILYRYAMGWSRQAAGTEREVVAAISRSGGDTYYADSVKGRFTISRDNAKNTVYLQMNSLKPEDTAVYYCAGYSSWSGGLGGVYYWGQGTQVTVSS”, the “polyreactivity (PSR sort gate)” value was “low polyreactivity”.

For “QVQLVESGGGLVQAGGSLRLSCAASGRILYVNAMGWYRQAPGKERELVAAISWRGGRTYYADSVKGRFTISRDHAKNTVYLQMNSLKPEDTAVYYCAARARGGYQRDYWGQGTQVTVSS”, the “polyreactivity (PSR sort gate)” value is on record as “high polyreactivity”.

For the sequence “QVQLVESGGGLVQAGGSLRLSCAASGRILYYYAMGWYRQAPGKERELVAAINSSGGSTYYADSVKGRFTISRDNAKNTVYLQMNSLKPEDTAVYYCAAVRSKLYYYWGQGTQVTVSS”, the “polyreactivity (PSR sort gate)” value is on record as “high polyreactivity”.

For the sequence “QVQLVESGGGLVQAGGSLRLSCAASGRIPAYAMGWYRQAPWKERELVAAITWSGGSTYYADSVKGRFTISRDNAKNTVYLQMISLKPEDTSVDYCAAKQWGRYGYWGKGTQVTVSS”, the “polyreactivity (PSR sort gate)” value was “high polyreactivity”.

On to “QVQLVESGGGLVQAGGSLRLSCAASGRIRYAMGWYRQAPGKERELVAGITWSGGRTYYADSVKGRFTISRDNAKNTVYLQMNSLKPEDTAVYYCAAATPYRYNYWGQGTQVTVSA”, for which the “polyreactivity (PSR sort gate)” value is given as “high polyreactivity”.

On to “QVQLVESGGGLVQAGGSLRLSCAASGRISARYVMGWYRQAPGKERELVAAISWSGDRTYYADSVKGRFTISRDNAKNTVYLQMNSLKPEDTAVYYCANGFYSRLAYGYGYWGQGTQVTVSS”, for which the “polyreactivity (PSR sort gate)” value is “high polyreactivity”.

Regarding “QVQLVESGGGLVQAGGSLRLSCAASGRISDDYAMGWYRQAPGKERELVADITSGGNTYYADSVKGRFTISRDNAKNTVYLQMNSLKPEDTAVYYCNAYYVGYIRYWTNKLVDYWGQGTQVTVSS”, the “polyreactivity (PSR sort gate)” value was “high polyreactivity”.

As to “QVQLVESGGGLVQAGGSLRLSCAASGRISFNAMGWYRQAPGKERELVAAITSSGGRTYYADSVKGRFTISRDNAKNTVYLQMNSLKPEDTAVYYCATGSPGGSPGWGRTTGRLGYWGQGTQVTVSS”, the “polyreactivity (PSR sort gate)” value is listed as “high polyreactivity”.

For “QVQLVESGGGLVQAGGSLRLSCAASGRISFVNAMGWYRQAPGKERELVAAISRGGSTNYADSVKGRFTISRDNAKNTVYLQMNSLKPEDTAVYYCAAQGNNYVRHTYGYWGQGTQVTVSS”, the “polyreactivity (PSR sort gate)” value is on record as “low polyreactivity”.

In the case of “QVQLVESGGGLVQAGGSLRLSCAASGRISGYKVMGWYRQAPGKERELVAAISGSGGSTYYADSVKGRFTISRDNAKNTVYLQMNSLKPEDTAVYYCAKATAYPYDYWGQGTQVTVSS”, the “polyreactivity (PSR sort gate)” value is reported as “low polyreactivity”.

With “QVQLVESGGGLVQAGGSLRLSCAASGRISGYNMGWSRHAPGKERELVAAISNGGSTNYADSVKGRFTISRANAKNTVYLQMNSLKPEDTAVYYCAKLGPRSYSAYRYDYWGQGTQVTVSS”, the “polyreactivity (PSR sort gate)” value is “high polyreactivity”.

Take “QVQLVESGGGLVQAGGSLRLSCAASGRISLSNAMGWYRQAPGKEREFVAAITKRSDRTYYADSVKGRFTISRDNAKNTVYLQMNSLKPEDTAVYYCAAKPLFGTRDDYWGQGTHVTVSS”: the “polyreactivity (PSR sort gate)” value was “low polyreactivity”.

On to “QVQLVESGGGLVQAGGSLRLSCAASGRISNDYAMGWYRQAPGKERELVATITFSGGDTYYADSVKGRFTISRDNAKNTVYLQMNSLKPEDTAVYYCAASKWRSFSGGWWRLLFDYWGQGTQVTVSS”, for which the “polyreactivity (PSR sort gate)” value is recorded as “low polyreactivity”.

In the case of “QVQLVESGGGLVQAGGSLRLSCAASGRISNDYAMGWYRQAPGKVRELVATITFSGGDTYYADSVKGRFTISRDNAKNTVYLQMNSLKPEDTSVYYCAASKWRSYSGGWWRLLFDYWGQGTQVTVSS”, the “polyreactivity (PSR sort gate)” value is “low polyreactivity”.

Consider “QVQLVESGGGLVQAGGSLRLSCAASGRISQIYAMGWYRQAPGKERELVARITSTDSTYYADSVKGRFTISRDNAKNTVYLQMNSLKPEDTAVYYCAASWWSPYDYWGQGTQVTVSS”, for which the “polyreactivity (PSR sort gate)” value is reported as “low polyreactivity”.

As to “QVQLVESGGGLVQAGGSLRLSCAASGRISQIYAMGWYRQAPGKERELVASISSSGSRTYYADSVKGRFTISRDNAKNTVYLQMNSLKPEDTAVYYCAARWWARSRGPYDYWGQGTQVTVSS”, the “polyreactivity (PSR sort gate)” value is “high polyreactivity”.

On to “QVQLVESGGGLVQAGGSLRLSCAASGRISQIYAMGWYRQAPGTERELVASISSSGSRTYYADSVKGRFTISRDNAKNTVYLQMNSLKPEDTAVYYCAARWWARSNRYDYWGQGTQVTVSS”, for which the “polyreactivity (PSR sort gate)” value is on record as “high polyreactivity”.

Take “QVQLVESGGGLVQAGGSLRLSCAASGRISRRYAMGWYRQAPGKERELVAAITSGGRTYYADSVKGRFTISRDNAKNTVYLQMNSLKPEDTAVYYCAAAGYLPSTYWGQGTQVTVSS”: the “polyreactivity (PSR sort gate)” value is “high polyreactivity”.

As to “QVQLVESGGGLVQAGGSLRLSCAASGRISSYYAMGWYRQAPGKDREFVARIRWSGGSTYYADSVKGRFTISRDNAKNTVYLQMNSLKPEDTAVYYCAAVPYAYGYTYDYWGQGTQVTVSS”, the “polyreactivity (PSR sort gate)” value is listed as “high polyreactivity”.

Take “QVQLVESGGGLVQAGGSLRLSCAASGRISTFYAMGWYRQAPGKERELVAGIRWRGGSTYYADSVKGRFTISRDNAKNTVYLQMNSLKAEDTAVYYCYSMDYWGQGTQVTVSS”: the “polyreactivity (PSR sort gate)” value is listed as “high polyreactivity”.

“QVQLVESGGGLVQAGGSLRLSCAASGRISVFNAMGWYREAPGKERELVAAITSGGSTNYADSVKGRFTISRDNAKNTVYLQMNSLKPEDTAVYYCNADVYHSHEPHYDYWGQGTQVTVSS”: the “polyreactivity (PSR sort gate)” value was “low polyreactivity”.

Regarding “QVQLVESGGGLVQAGGSLRLSCAASGRISVVNARGWYRQAPGKERELVAAIRRASTNYADSVKGRFTISRDIAKNTVYLQMNILKPEDTAVYYCAARVYGINIFEYWGQGTQVTVSS”, the “polyreactivity (PSR sort gate)” value was “high polyreactivity”.

For “QVQLVESGGGLVQAGGSLRLSCAASGRISWGYAMGWYRQAPGKERELVAVINFNGGRTYYADSVKGRFTISRDNAKNTVYLQMNSLKPEDTAVYYCAADSGYEYDYWGQGTQVTVSS”, the “polyreactivity (PSR sort gate)” value is “low polyreactivity”.

For “QVQLVESGGGLVQAGGSLRLSCAASGRISYAYAMGRYRQAPGKERELVAAISGSGGSTYYADSVKWRFTISRDNAKNTVYFQMNTLKPEDTAVYYCAAGSGEYYGGKRYYWGQGTQVTVSS”, the “polyreactivity (PSR sort gate)” value is given as “low polyreactivity”.

“QVQLVESGGGLVQAGGSLRLSCAASGRIVLGYAMGWYRQQPGKEMELVAAISRSGGGTFYADSVKGRFTISRDNAKNTVYLQMNSLKPEDTAVYYCNARRGRASGMDYWGQGTQVTVSS”: the “polyreactivity (PSR sort gate)” value was “high polyreactivity”.

For the sequence “QVQLVESGGGLVQAGGSLRLSCAASGRIVNRYAMGWDRQAPVKERELVAAITYNGGSTYYADSVKGRFTISRDNAKNTVYLQMNSLKPVDTAVYYCNAVEVLDEGWGFWYYYWGQGTQVTVSS”, the “polyreactivity (PSR sort gate)” value was “high polyreactivity”.

Regarding “QVQLVESGGGLVQAGGSLRLSCAASGRIVRNAMGWYRQSPGKERELVAAISRSGGSTYYADSVKGRFTISRDNAKNTVYLQMNSLKPEDTAVYYCAKRSTSQSLQGEYWGQGTQVTVSS”, the “polyreactivity (PSR sort gate)” value is “high polyreactivity”.

As for “QVQLVESGGGLVQAGGSLRLSCAASGRIVVGYAMGWYRQAPGKERELVAAINRSGSSTYYADSVKGRFTISRDNAKNTVYLQMNSLKPEDTAVYYCNARSGNRYGPRYDYWGQGTQVTVSS”, the “polyreactivity (PSR sort gate)” value is “high polyreactivity”.

As for “QVQLVESGGGLVQAGGSLRLSCAASGRIWWNAMGWYRPAPGNETELVAAIRWSGGITRYADSVKGRFTISRDNAKNTVDLQMHSLKPEDTAVYYCAARLGGSIRSKFDYWGQGTQVTVSS”, the “polyreactivity (PSR sort gate)” value is listed as “high polyreactivity”.

As for “QVQLVESGGGLVQAGGSLRLSCAASGRIYDYNTMGWYRKAPGKERELVAAITGGTGSTYYADSVKGRFTISRDNAKNTVYLQMNSLKPEDTAVYYCAAGFHKRVTPEILYDYWGQGTQVTVSS”, the “polyreactivity (PSR sort gate)” value is “low polyreactivity”.

On to “QVQLVESGGGLVQAGGSLRLSCAASGRIYDYYAMGWYRQAPGKERELVAAISTSGGSTYYADSVKGRFTISRDHAKNTVYLQMKSLKPEDTAVYYCAKDITVTYPGLDYDYWGQVTQVTVSS”, for which the “polyreactivity (PSR sort gate)” value is “low polyreactivity”.

On to “QVQLVESGGGLVQAGGSLRLSCAASGRIYGANTMGWYRQAPGKERELVAAISWRGTSTYADSVKGRFSISRDNAKNTVYLQMNSLKPEDTAVYYCAARRRGWPQFDYWGQGTQVTVSS”, for which the “polyreactivity (PSR sort gate)” value is recorded as “high polyreactivity”.

As for “QVQLVESGGGLVQAGGSLRLSCAASGRIYGDYAMGWYRQAPGKERELVARITWSGTGTYYADSVKGRFTISRDNAKNTVYLQMNSLKPEDTAVYYCNADWQVKWYYYWGQVTQVTVSS”, the “polyreactivity (PSR sort gate)” value is “low polyreactivity”.

Regarding “QVQLVESGGGLVQAGGSLRLSCAASGRIYGNAMGWYRQAPGKERELDAAISFSVSSTNYADSVKGRFTISRDNAKNTVYLQMNSLKPEDTAVYYCAADWIGPTYPEMYYWGQGTQVTVSS”, the “polyreactivity (PSR sort gate)” value is recorded as “low polyreactivity”.

With “QVQLVESGGGLVQAGGSLRLSCAASGRIYGTNAMGWYRQAPGKEMELVAAINGSDSSTYYADSVKGRFTISRDNAKNTVYLQINSLKPEDTAVYYCNADWSGAPERSTDGYDYWGQGTQVTVSS”, the “polyreactivity (PSR sort gate)” value is “low polyreactivity”.

On to “QVQLVESGGGLVQAGGSLRLSCAASGRIYGYYGMGWYRQAPGKERELVAAITYRGGSTYYADSVKGRFTISRDNAKNTVYLQMNSLKPEDTAVYYCAADGYSHYRYLYDYWGQGTQVTVSS”, for which the “polyreactivity (PSR sort gate)” value is “low polyreactivity”.

In the case of “QVQLVESGGGLVQAGGSLRLSCAASGRIYNSYAMGWYRQAPGKERELVASTNYADSVKGRFTISRDNAKNTVYLQMNSLKPEDSAVYYCARVDVGWQGGEVLFGRFGYWGQGTQVTVSS”, the “polyreactivity (PSR sort gate)” value is reported as “low polyreactivity”.

Consider “QVQLVESGGGLVQAGGSLRLSCAASGRIYPKYGMGWYRQAPGKERELVAAITSGTSTYYADSVKGRFTISRDNAKNTVYLQMNSLKPEDTAVYYCAARPTDGSGWPYRWTSDYWGQATQVTVSS”, for which the “polyreactivity (PSR sort gate)” value is “low polyreactivity”.

Turning to “QVQLVESGGGLVQAGGSLRLSCAASGRIYRYYAMGWYRQPPAKERELVAAIRRGGSTSYADSVKGRFTISRDNAKNTVYLQMNSLKPEDTAVYYCAATQYYRGYDYWGQGTQVTVSS”, the “polyreactivity (PSR sort gate)” value is given as “high polyreactivity”.
